Reference: the Human Domainome abundance scans (Beltran et al. 2025)
± gives the uncertainty stated by the source.

B1: CD2-associated protein, residues 1 to 59; numbered along this chain, Q9Y5K6 (parent)
chain: MVDYIVEYDYDAVHDDELTIRVGEIIRNVKKLQEEGWLEGELNGRRGMFPDNFVKEIKR

Variants of: B1
Experiment: abundance fitness (aPCA) (normalised: wild type 0, dead -1); higher = more abundant; growth selection in yeast, the domain comes from the species named
Details: Homo sapiens

Abundance fitness, by site and new letter:
N28: C -0.215 ± 0.13 | A -0.387 ± 0.093
T19: R -0.66 ± 0.16 | M -0.713 ± 0.18 | D -0.36 ± 0.15 | A -0.756 ± 0.14 | L -0.682 ± 0.11 | K -0.464 ± 0.09 | H -0.399 ± 0.23 | G -0.792 ± 0.17 | Y -0.846 ± 0.22 | W -0.929 ± 0.23 | F -0.841 ± 0.34 | C -0.384 ± 0.11 | P -0.685 ± 0.19 | S -0.033 ± 0.066 | Q -0.498 ± 0.14 | N -0.224 ± 0.11 | I -0.753 ± 0.16
G23: W -0.955 ± 0.33 | R -0.856 ± 0.18 | I -0.739 ± 0.34 | K -0.383 ± 0.2 | C -0.831 ± 0.22 | L -1.17 ± 0.28 | T -0.755 ± 0.24 | P -1.04 ± 0.33 | Y -0.522 ± 0.24 | Q -0.557 ± 0.26 | S -0.651 ± 0.14 | V -0.844 ± 0.21 | M -0.918 ± 0.34 | N -0.581 ± 0.24 | A -0.911 ± 0.29
I20: N -0.792 ± 0.24 | D -0.933 ± 0.34 | P -0.762 ± 0.22 | C -0.292 ± 0.14 | W -0.736 ± 0.39 | L -0.014 ± 0.057 | V -0.225 ± 0.082 | A -0.546 ± 0.14 | F -0.373 ± 0.13 | S -0.743 ± 0.2 | M -0.019 ± 0.11
R27: I -0.155 ± 0.066 | V -0.096 ± 0.076 | S -0.064 ± 0.057 | G -0.148 ± 0.092 | M -0.133 ± 0.18 | A -0.228 ± 0.079 | Y -0.291 ± 0.075 | Q -0.147 ± 0.18 | T -0.013 ± 0.079 | L -0.208 ± 0.086 | D -0.838 ± 0.18 | F -0.195 ± 0.057 | E -0.081 ± 0.2 | H 0.059 ± 0.069 | K -0.283 ± 0.35 | N -0.173 ± 0.075 | C -0.038 ± 0.065
Y4: C -0.173 ± 0.14 | L -0.476 ± 0.11 | D -0.826 ± 0.26 | I -0.844 ± 0.28 | M -0.086 ± 0.13 | H -0.554 ± 0.21 | A -0.254 ± 0.15 | Q -0.687 ± 0.39 | K -0.486 ± 0.15 | P -0.863 ± 0.35 | W -0.166 ± 0.098 | T -0.136 ± 0.12 | V -0.042 ± 0.13 | R -0.404 ± 0.091
I25: C -0.392 ± 0.23 | Q -0.338 ± 0.13 | S -0.541 ± 0.14 | T -0.064 ± 0.12 | H -0.146 ± 0.26 | E -0.516 ± 0.47 | M -0.28 ± 0.15 | W -0.519 ± 0.12 | G -0.718 ± 0.17 | A -0.667 ± 0.22 | V -0.088 ± 0.13 | K -0.043 ± 0.2 | R -0.079 ± 0.071 | P -0.845 ± 0.25 | Y -0.294 ± 0.18
I5: M 0 ± 0.14 | D -0.556 ± 0.32 | T -0.335 ± 0.14 | L -0.105 ± 0.1 | C -0.343 ± 0.21 | V -0.097 ± 0.075 | E -0.267 ± 0.18 | A -0.544 ± 0.17 | N -0.681 ± 0.36 | Q 0.037 ± 0.18 | R -0.128 ± 0.12 | G -0.704 ± 0.16 | P -0.979 ± 0.41 | S -0.317 ± 0.1
D3: V -0.379 ± 0.067 | S -0.048 ± 0.055 | R -0.255 ± 0.046 | Q -0.188 ± 0.068
D9: G -0.242 ± 0.096 | E -0.346 ± 0.12 | K -0.369 ± 0.32 | L -0.92 ± 0.24 | T -0.725 ± 0.21 | A -0.091 ± 0.14 | C -0.671 ± 0.37 | V -0.77 ± 0.37 | S -0.172 ± 0.13 | R -0.417 ± 0.11 | N -0.276 ± 0.4
D11: N -0.086 ± 0.17 | V -0.002 ± 0.16 | Y -0.242 ± 0.14
A12: H -0.924 ± 0.43 | P -0.591 ± 0.1 | E -0.435 ± 0.18 | L -1.12 ± 0.16 | Q -0.349 ± 0.12 | Y -1.05 ± 0.4 | R -0.416 ± 0.07 | S -0.157 ± 0.088 | N -0.618 ± 0.22 | V -1.02 ± 0.24 | D -0.846 ± 0.44 | T -0.716 ± 0.25 | I -0.782 ± 0.21 | W -0.942 ± 0.22 | M -0.842 ± 0.22 | K -0.205 ± 0.14 | C -0.35 ± 0.14
D16: V -0.088 ± 0.065 | E -0.115 ± 0.086 | K -0.095 ± 0.13 | W -0.08 ± 0.094 | A -0.045 ± 0.059 | Y 0.03 ± 0.14 | L -0.13 ± 0.076 | T 0.005 ± 0.09 | N 0.001 ± 0.16 | F -0.297 ± 0.15 | P -0.434 ± 0.13 | Q -0.12 ± 0.15 | M -0.073 ± 0.13 | G -0.069 ± 0.068 | C 0.229 ± 0.18 | S -0.036 ± 0.076
Y8: D -0.197 ± 0.22 | V -0.154 ± 0.11 | C 0.096 ± 0.11 | Q 0.04 ± 0.12 | H 0.148 ± 0.23 | P -0.918 ± 0.34 | F 0.078 ± 0.18 | S 0.013 ± 0.078 | E -0.02 ± 0.099 | A 0.002 ± 0.082 | L -0.047 ± 0.084 | M -0.261 ± 0.12 | G -0.026 ± 0.1 | R 0.097 ± 0.098 | W -0.139 ± 0.094 | I 0.184 ± 0.2 | K 0.057 ± 0.12 | T 0.123 ± 0.16
V13: L -0.188 ± 0.095 | N -0.164 ± 0.17 | K -0.074 ± 0.14 | Y -0.328 ± 0.25 | H -0.358 ± 0.47 | P -0.726 ± 0.19 | G -0.046 ± 0.079 | M -0.058 ± 0.18 | R -0.149 ± 0.077 | I -0.431 ± 0.33 | W -0.197 ± 0.13 | F -0.354 ± 0.22 | S 0.067 ± 0.1 | T -0.275 ± 0.11 | Q -0.268 ± 0.23 | E -0.058 ± 0.18
V22: C -0.304 ± 0.22 | I -0.273 ± 0.15 | Y -0.301 ± 0.25 | A 0.16 ± 0.15 | G -0.02 ± 0.19 | M -0.52 ± 0.2 | F -0.17 ± 0.21 | T -0.067 ± 0.14 | W -0.703 ± 0.47 | S -0.09 ± 0.086 | E 0.115 ± 0.16 | L -0.438 ± 0.1 | H -0.201 ± 0.18 | R -0.082 ± 0.12
E7: I 0.025 ± 0.15 | L -0.004 ± 0.057 | Y -0.18 ± 0.18 | R -0.087 ± 0.074 | A -0.135 ± 0.079 | T 0.028 ± 0.074 | P -0.697 ± 0.13 | S -0.212 ± 0.094 | Q -0.131 ± 0.11 | V 0.008 ± 0.072 | D -0.256 ± 0.15 | N -0.311 ± 0.17 | H -0.581 ± 0.35
D15: I -0.415 ± 0.24 | W -0.453 ± 0.13 | R -0.146 ± 0.076 | L -0.142 ± 0.054 | Q -0.008 ± 0.11 | V -0.038 ± 0.069 | P -0.13 ± 0.2 | G -0.051 ± 0.12 | S -0.098 ± 0.06 | A -0.011 ± 0.092 | C -0.284 ± 0.17 | F -0.325 ± 0.09 | K -0.078 ± 0.14 | Y -0.204 ± 0.11 | E 0.002 ± 0.094 | M -0.305 ± 0.096 | H -0.078 ± 0.14
I26: V -0.177 ± 0.13 | S -0.79 ± 0.29 | L -0.107 ± 0.085 | W -0.743 ± 0.23 | A -0.636 ± 0.32 | R -0.894 ± 0.17 | G -0.926 ± 0.26 | C -0.517 ± 0.13 | N -0.988 ± 0.33
Y10: K -0.322 ± 0.077 | R -0.014 ± 0.062 | P -0.904 ± 0.26 | S -0.999 ± 0.17 | E -0.787 ± 0.19 | T -0.878 ± 0.18 | M -0.667 ± 0.11 | N -0.599 ± 0.33 | A -0.787 ± 0.14 | L -0.782 ± 0.1 | I -0.812 ± 0.37 | W -0.037 ± 0.062 | C -0.569 ± 0.22 | V -1.06 ± 0.39 | G -0.671 ± 0.21 | Q -1.18 ± 0.31 | H -0.257 ± 0.28 | D -0.473 ± 0.46
E24: W -0.764 ± 0.18 | N -0.412 ± 0.44 | T -0.449 ± 0.14 | F -0.338 ± 0.26 | D 0.321 ± 0.27 | Q -0.263 ± 0.18 | R -0.687 ± 0.087 | V -0.94 ± 0.24 | C -0.625 ± 0.13 | M -0.387 ± 0.12 | G -0.341 ± 0.073
L18: S -0.651 ± 0.23 | M -0.244 ± 0.11 | F -0.846 ± 0.44 | C -0.661 ± 0.49 | A -0.683 ± 0.34 | K -0.737 ± 0.46 | Y -0.904 ± 0.43 | V -0.499 ± 0.14 | R -0.504 ± 0.32
R21: C -0.284 ± 0.1 | P -0.793 ± 0.43 | V -0.755 ± 0.12 | A -0.826 ± 0.19 | H -0.161 ± 0.15 | T -0.593 ± 0.13 | L -0.358 ± 0.088 | K -0.28 ± 0.36 | N -0.827 ± 0.37 | Y -1 ± 0.33 | S -0.433 ± 0.091 | M -0.713 ± 0.31 | Q -0.414 ± 0.24
V6: A -0.08 ± 0.063 | R -0.875 ± 0.12 | F -0.483 ± 0.13 | H -0.832 ± 0.2 | T -0.367 ± 0.082 | G -0.438 ± 0.066 | M -0.795 ± 0.2 | P -1.2 ± 0.39 | Y -0.52 ± 0.14 | K -0.579 ± 0.18 | S -0.363 ± 0.054 | N -1.04 ± 0.31 | E -0.96 ± 0.33
E17: T -0.461 ± 0.27 | F -0.466 ± 0.33 | C -0.407 ± 0.27 | D -0.13 ± 0.4 | Y -0.736 ± 0.38 | V -0.747 ± 0.23 | L -0.882 ± 0.25 | Q 0.146 ± 0.14 | G -0.34 ± 0.095 | M -0.534 ± 0.18 | N -0.421 ± 0.23 | A -0.628 ± 0.13 | R -0.567 ± 0.14
H14: C 0.152 ± 0.17 | P -0.946 ± 0.26 | L -0.217 ± 0.093 | N 0.09 ± 0.15 | V -0.186 ± 0.092 | W -0.455 ± 0.17 | D -0.113 ± 0.18 | A -0.113 ± 0.14 | K 0.088 ± 0.15 | G -0.031 ± 0.087 | R 0.021 ± 0.091 | T -0.001 ± 0.12 | Q -0.086 ± 0.15 | E -0.016 ± 0.13
